Experimental findings from US20020123056 are described below.

The series concerns T1, GST-SGK2 fusion protein (human SGK2 with N-terminal Glutathione S-transferase tag, expressed in Hi5 insect cells).
T1 sequence: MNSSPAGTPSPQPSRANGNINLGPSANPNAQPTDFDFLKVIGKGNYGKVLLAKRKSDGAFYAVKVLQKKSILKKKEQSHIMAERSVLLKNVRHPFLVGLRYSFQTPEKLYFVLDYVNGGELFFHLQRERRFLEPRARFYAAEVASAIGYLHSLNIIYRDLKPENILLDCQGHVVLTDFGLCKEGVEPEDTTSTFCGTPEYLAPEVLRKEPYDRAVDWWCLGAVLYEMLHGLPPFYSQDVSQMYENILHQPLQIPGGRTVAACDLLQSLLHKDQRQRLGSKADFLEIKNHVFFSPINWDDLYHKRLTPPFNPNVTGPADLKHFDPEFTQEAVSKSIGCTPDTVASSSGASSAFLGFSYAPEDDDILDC

Consider “active His-tag PDK1 (expressed in insect cells, purified on Talon affinity column)”, for which the “in vitro phosphorylation of SGK2 by PDK1 (32P, SDS-PAGE imaging)” value is recorded as “SGK2 activated by PKD1 was significantly phosphorylated, while non-activated SGK2 was not”.
